Article PMC10590275 (Nature structural & molecular biology, 2023)

Legend:
mass photometry = target: the molecule itself; test: mass photometry
[1] = target: human dynein_(MOTOR)^MT-B (microtubule-bound mutant motor domain) (human | T. thermophilus); test: mass photometry

B1: human LIS1-SNAP (natural protein)
chain: VLSQRQRDELNRAIADYLRSNGYEEAYSVFKKEAELDVNEELDKKYAGLLEKKWTSVIRLQKKVMELESKLNEAKEEFTSGGPLGQKRDPKEWIPRPPEKYALSGHRSPVTRVIFHPVFSVMVSASEDATIKVWDYETGDFERTLKGHTDSVQDISFDHSGKLLASCSADMTIKLWDFQGFECIRTMHGHDHNVSSVAIMPNGDHIVSASRDKTIKMWEVQTGYCVKTFTGHREWVRMVRPNQDGTLIASCSNDQTVRVWVVATKECKAELREHEHVVECISWAPESSYSSISEATGSETKKSGKPGPFLLSGSRDKTIKMWDVSTGMCLMTLVGHDNWVRGVLFHSGGKFILSCADDKTLRVWDYKNKRCMKTLNAHEHFVTSLDFHKTAPYVVTGSVDQTVKVWECR
Q: For B1, which “stoichiometry N” value (mass photometry) is on record?
A: 2

Q: What about the “stoichiometry N” value [1] of the same binder?
A: 1 LIS1 dimer per dynein_(MOTOR) monomer
